Assay results published in patent publication US20240287138A1, “CYCLIC PEPTIDES FOR INHIBITING TNF RECEPTOR 1 ACTIVITY” (Merck Sharp & Dohme LLC, priority 2023, published 2024).
Numbered stars: 1 amine (or outer) side, 2 acyl side, 3 side chain; on linkers, the order of the positions; unused ones are H or OH. Bridge positions count the residues as written; N and C are the ends. Square brackets hold non-standard residues; d marks the D form. bhcLeu = (1R,3S)-3-aminocyclopentane-1-carboxylic acid, O=C([C@@H]1CC[C@H](N[*:1])C1)[*:2]; FX1 = N5-(Pyridin-3-yl)-L-glutamine, O=C(CC[C@H](N[*:1])C(=O)[*:2])Nc1cccnc1; Ala(2-carboxypyrimidin-5-yl) = N[C@@H](Cc1cnc(C(=O)O)nc1)C(=O)O; Trp(βS-Me,7-OMe) = COc1cccc2c([C@H](C)[C@H](N)C(=O)O)c[nH]c12; NEtdA = N-ethyl-D-alanine, CCN([C@H](C)C(=O)[*:2])[*:1]; Trp(7-Cl) = N[C@@H](Cc1c[nH]c2c(Cl)cccc12)C(=O)O; Phe(4-CONH2) = NC(=O)c1ccc(C[C@H](N)C(=O)O)cc1; Phe(4-COOH) = N[C@@H](Cc1ccc(C(=O)O)cc1)C(=O)O; Trp(7-aza) = N[C@@H](Cc1c[nH]c2ncccc12)C(=O)O; Pip(5R-OH) = O=C(O)[C@@H]1CC[C@@H](O)CN1; Pip(4-aza) = O=C(O)[C@@H]1CNCCN1; 4Pal = N[C@@H](Cc1ccncc1)C(=O)O; NMeE = CN[C@@H](CCC(=O)O)C(=O)O; dHyp = O=C(O)[C@H]1C[C@H](O)CN1; NMeS = CN[C@@H](CO)C(=O)O; αMeS = C[C@](N)(CO)C(=O)O; Nle = CCCC[C@H](N)C(=O)O; Pip2c = not defined here; Sar = CNCC(=O)O

B1: SEQ ID NO. 186 (peptide)
peptide: {CH2CO}-[Nle][4Pal][Pip(5R-OH)]W[NEtdA]N[4Pal][Trp(7-Cl)][αMeS][Phe(4-CONH2)]Y[Sar][Trp(βS-Me,7-OMe)]C-NH2
modifications: thioether N-14
SMILES: CCCC[C@@H]1NC(=O)CSC[C@@H](C(N)=O)NC(=O)[C@H]([C@@H](C)c2c[nH]c3c(OC)cccc23)NC(=O)CN(C)C(=O)[C@H](Cc2ccc(O)cc2)NC(=O)[C@H](Cc2ccc(C(N)=O)cc2)NC(=O)[C@](C)(CO)NC(=O)[C@H](Cc2c[nH]c3c(Cl)cccc23)NC(=O)[C@H](Cc2ccncc2)NC(=O)[C@H](CC(N)=O)NC(=O)[C@@H](C)N(CC)C(=O)[C@H](Cc2c[nH]c3ccccc23)NC(=O)[C@@H]2CC[C@@H](O)CN2C(=O)[C@H](Cc2ccncc2)NC1=O
B2: SEQ ID NO. 191 (peptide)
peptide: cyclo([bhcLeu][Nle][4Pal][Pip(5R-OH)]W[dHyp]N[Phe(4-COOH)][Trp(7-Cl)][αMeS][Phe(4-CONH2)][Ala(2-carboxypyrimidin-5-yl)][Sar][Trp(βS-Me,7-OMe)])
SMILES: CCCC[C@@H]1NC(=O)[C@@H]2CC[C@@H](C2)NC(=O)[C@H]([C@@H](C)c2c[nH]c3c(OC)cccc23)NC(=O)CN(C)C(=O)[C@H](Cc2cnc(C(=O)O)nc2)NC(=O)[C@H](Cc2ccc(C(N)=O)cc2)NC(=O)[C@](C)(CO)NC(=O)[C@H](Cc2c[nH]c3c(Cl)cccc23)NC(=O)[C@H](Cc2ccc(C(=O)O)cc2)NC(=O)[C@H](CC(N)=O)NC(=O)[C@H]2C[C@H](O)CN2C(=O)[C@H](Cc2c[nH]c3ccccc23)NC(=O)[C@@H]2CC[C@@H](O)CN2C(=O)[C@H](Cc2ccncc2)NC1=O
B3: SEQ ID NO. 178 (peptide)
peptide: cyclo([bhcLeu][Nle][4Pal][Pip(4-aza)]W[NMeE]N[4Pal][Trp(7-Cl)][αMeS][Phe(4-COOH)]H[Sar][Trp(βS-Me,7-OMe)])
SMILES: CCCC[C@@H]1NC(=O)[C@@H]2CC[C@@H](C2)NC(=O)[C@H]([C@@H](C)c2c[nH]c3c(OC)cccc23)NC(=O)CN(C)C(=O)[C@H](Cc2c[nH]cn2)NC(=O)[C@H](Cc2ccc(C(=O)O)cc2)NC(=O)[C@](C)(CO)NC(=O)[C@H](Cc2c[nH]c3c(Cl)cccc23)NC(=O)[C@H](Cc2ccncc2)NC(=O)[C@H](CC(N)=O)NC(=O)[C@H](CCC(=O)O)N(C)C(=O)[C@H](Cc2c[nH]c3ccccc23)NC(=O)[C@@H]2CNCCN2C(=O)[C@H](Cc2ccncc2)NC1=O
B4: SEQ ID NO. 158 (peptide)
peptide: {CH2CO}-[Nle][4Pal][Pip2c][Trp(7-aza)][NMeE]N[4Pal][Trp(7-Cl)][αMeS][Phe(4-COOH)][TyrOCF3][Sar][Trp(βS-Me,7-OMe)]C-NH2
modifications: thioether N-14; reading uncertain; also: printed as cyclo(ClAc-Nle-4Pal-Pip2c-Trp7az-NMeE-N-4Pal-Trp7Cl-aMeS-Phe4COOH-TyrOCF3-Sar-SbMeW7OMe-C)-NH2
B5: SEQ ID NO. 166 (peptide)
peptide: cyclo([bhcLeu][FX1][4Pal][NMeS]W[NMeE]N[4Pal][Trp(7-Cl)][αMeS][Phe(4-COOH)]Y[Sar][Trp(βS-Me,7-OMe)])
SMILES: COc1cccc2c([C@H](C)[C@@H]3NC(=O)CN(C)C(=O)[C@H](Cc4ccc(O)cc4)NC(=O)[C@H](Cc4ccc(C(=O)O)cc4)NC(=O)[C@](C)(CO)NC(=O)[C@H](Cc4c[nH]c5c(Cl)cccc45)NC(=O)[C@H](Cc4ccncc4)NC(=O)[C@H](CC(N)=O)NC(=O)[C@H](CCC(=O)O)N(C)C(=O)[C@H](Cc4c[nH]c5ccccc45)NC(=O)[C@H](CO)N(C)C(=O)[C@H](Cc4ccncc4)NC(=O)[C@H](CCC(=O)Nc4cccnc4)NC(=O)[C@@H]4CC[C@@H](C4)NC3=O)c[nH]c12

The binders below were run against C'-terminally 6His-tagged human soluble TNFR1 (sTNFR1, residues 1-211) (human) (assay: TR-FRET displacement of biotinylated peptide SEQ ID NO. 1 from sTNFR1-6His).
C'-terminally 6His-tagged human soluble TNFR1 (sTNFR1, residues 1-211) (human), sequence (chain, as listed by the source): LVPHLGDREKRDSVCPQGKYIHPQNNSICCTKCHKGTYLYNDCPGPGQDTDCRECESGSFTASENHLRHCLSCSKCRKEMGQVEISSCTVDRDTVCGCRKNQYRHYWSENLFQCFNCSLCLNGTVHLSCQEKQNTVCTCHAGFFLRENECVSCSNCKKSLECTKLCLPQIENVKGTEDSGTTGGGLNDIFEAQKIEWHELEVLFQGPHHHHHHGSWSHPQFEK
Binder B1 has an IC50 of 0.5 nM and a Kd^app of 0.42 nM. Binder B2 has a Kd^app of 0.18 nM. Work on B3 yielded a Kd^app of 0.29 nM. For B4, the IC50 was 1.79 nM. For B5, the IC50 was 0.5 nM and the Kd^app was 0.44 nM.
